Measurements reported in patent US20110091994A1, “Methods for Screening Compounds for Treating and/or Preventing an Hepatitis C Virus Infection” (priority 2008, published 2011).
Where two headings read alike, the source gives them in different places.

What was measured:
[1] = tested on: HCV ORFs (Gal4-DB fusions); assay type: binding, HCV genotype 1b, isolate con1; details: human protein listed by gene symbol; the value names the HCV protein it interacts with
Procedure: (§1) HCV ORFs were transferred from pDONR223 into bait vector (pPC97) to be expressed as Gal4-DB fusions in yeast. Two different screening methods were used (IMAP1 and IMAP2). Both for IMAP1 and IMAP2 strategies and because bait constructs sometimes self-transactivate reporter genes, SD-L-H culture medium were supplemented with 3-aminotriazole (3-AT). Appropriate concentrations of this drug were determined by growing bait strains on SD-L-H medium supplemented with increasing concentrations of 3-AT. […] For IMAP1, bait vectors were introduced in MAV203 yeast strain and both human spleen and foetal brain AD-cDNA libraries (Invitrogen) were screened by transformation as described (7). All primary positive clones (selected on SD-W-L-H+3-AT) were tested by further phenotypic assay using two additional reporter genes: LacZ (X-Gal colorimetric assay) and URA3 (growth assay on 5-FOA supplemented medium). […] AD-cDNA were PCR-amplified and inserts were sequenced to identify interactors. IMAP2 screens were performed by yeast mating, using AH109 and Y187 yeast strains (Clontech (8)). Bait vectors were transformed into AH109 (bait strain) and human spleen and foetal brain AD-cDNA libraries (Invitrogen) were transformed into Y187 (prey strain). Single bait strains were mated with prey strains then diploids were plated on SD-W-L-H+3-AT medium. Positive clones were maintained onto this selective medium for 15 days to eliminate any contaminant AD-cDNA plasmid (9). AD-cDNAs were PCR amplified and inserts were sequenced.
(§2) We have developed a bioinformatic pipeline that assigns each IST to its native human genome transcript. […] Gal4 motif was searched (last 87 bases of GAL4-AD), sequences downstream of this motif were translated into peptides and aligned using BLASTP against the REFSEQ (http://www.ncbi.nlm.nih.gov/RefSeq/) human protein sequence database (release 04/2007). Low-confidence alignments (E value>10^−10, identity <80%) and premature STOP codon containing sequences were eliminated. Only in-frame proteins and high quality sequences were further considered

[2] = target: T1, HCV ORFs (Gal4-DB fusions) (Hepatitis C virus genotype 1b, UniProt Q9WMX2); assay type: binding, HCV genotype 1b, isolate con1; details: human protein as prey
T1 construct: expressed in transfected cells; host or cells: Saccharomyces cerevisiae MAV203 (IMAP1) / AH109 (IMAP2)
Procedure: as §1, §2

HCV proteins = target: T2, HCV proteins (Hepatitis C virus genotype 1b, UniProt Q9WMX2); assay: Validation by Y2H pairwise matrices; assay type: binding;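 also: yeast two-hybrid pairwise tests of interactions first found in Y2H screens of HCV bait proteins against human cDNA libraries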
T2 construct: expressed in transfected cells

[3] = validation of interaction with HCV protein NS3
[4] = interaction with HCV protein p7
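For IMAP Y2H IMAP1 (number of IST) in this document: yeast two-hybrid screens using HCV genotype 1b proteins fused to Gal4-DB as baits against prey cDNA libraries from human spleen and foetal brain, IMAP1 via transformation and IMAP2 via mating.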
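For Interaction with viral protein in this document: yeast two-hybrid screens using HCV genotype 1b proteins fused to Gal4-DB as baits against prey cDNA libraries from human spleen and foetal brain, IMAP1 via transformation and IMAP2 via mating.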

B1: CBY1 (protein, UniProt Q9Y3M2 1-126, looked up)
Protein chibby homolog 1: MPFFGNTFSPKKTPPRKSASLSNLHSLDRSTREVELGLEYGSPTMNLAGQSLKFENGQWIAETGVSGGVDRREVQRLRRRNQQLEEENNLLRLKVDILLDMLSESTAESHLMEKELDELRISRKRK
Interaction with viral protein [1]: NS3
IMAP Y2H IMAP1 (number of IST) ([2]; HCV protein NS3 as bait): 2
Y2H matrices (HCV proteins; [3]): +

B2: CCDC52 (protein, UniProt Q8N0Z3 1-855, looked up)
Spindle and …: MSFVRVNRCGPRVGVRKTPKVKKKKTSVKQEWDNTVTDLTVHRATPEDLVRRHEIHKSKNRALVHWELQEKALKRKWRKQKPETLNLEKRRLSIMKEILSDQYQMQDVLEKSDHLIAAAKELFPRRRTGFPNVTVAPDSSQGPIVVNQDPITQSIFNESVIEPQALNDVDGEEEGTVNSQSGESENENELDNSLNSQSNTNTDRFLQQLTEENFELISKLWTDIQQKIATQSQITPPGTPSSALSSGEQRAALNATNAVKRLQTRLQPEESTETLDSSYVVGHVLNSRKQKQLLNKVKRKPNLHALSKPKKNISSGSTTSADLPNRTNSNLDVLKHMIHEVEHEMEEYERWTGREVKGLQSSQGLTGFTLSLVSSLCRLVRYLKESEIQLRKEVETRQQLEQVLGDHRELIDALTAEILRLREENAATQARLQQYMVTTDEQLISLTHAIKNCPVINNRQEIQASESGATGRRVMDSPERPVVNANVSVPLMFREEVAEFPQEELPVKLSQVPDPPDNMNLAKNFPAHIFEPAVLLTPPRQKSNLKFSPLQDVLRRTVQTRPAPRLPPTVEIIEKEQNWEEKTLPIDTDIQNSSEENRLFTQRWRVSHMGEDLENKTQAPFVNLSQPLCNSHSNTQQSRSPTFSEELPVLGDGQQLRTNESLIQRKDIMTRIADLTLQNSAIKAHMNNIIEPRGEQGDGLRELNKQESASDMTSTFPVAQSLTPGSMEERIAELNRQSMEARGKLLQLIEQQKLVGLNLSPPMSPVQLPLRAWTEGAKRTIEVSIPGAEAPESSKCSTVSPVSGINTRRSSGATGNSCSPLNATSGSGRFTPLNPRAKIEKQNEEGWFALSTHVS
Interaction with viral protein [1]: NS3
IMAP Y2H IMAP1 (number of IST) ([2]; HCV protein NS3 as bait): 1
Y2H matrices (HCV proteins; [3]): +

B3: SMEK2 (protein, UniProt Q5MIZ7 1-849, looked up)
Serine/threonine-protein …: MSDTRRRVKVYTLNEDRQWDDRGTGHVSSTYVEELKGMSLLVRAESDGSLLLESKINPNTAYQKQQDTLIVWSEAENYDLALSFQEKAGCDEIWEKICQVQGKDPSVEVTQDLIDESEEERFEEMPETSHLIDLPTCELNKLEEIADLVTSVLSSPIRREKLALALENEGYIKKLLQLFQACENLENTEGLHHLYEIIRGILFLNKATLFEVMFSDECIMDVVGCLEYDPALAQPKRHREFLTKTAKFKEVIPITDSELRQKIHQTYRVQYIQDIILPTPSVFEENFLSTLTSFIFFNKVEIVSMLQEDEKFLSEVFAQLTDEATDDDKRRELVNFFKEFCAFSQTLQPQNRDAFFKTLAKLGILPALEIVMGMDDLQVRSAATDIFSYLVEFSPSMVREFVMQEAQQSDDDILLINVVIEQMICDTDPELGGAVQLMGLLRTLIDPENMLATTNKTEKSEFLNFFYNHCMHVLTAPLLTNTSEDKCEKDFFLKHYRYSWSFICTPSHSHSHSTPSSSISQDNIVGSNKNNTICPDNYQTAQLLALILELLTFCVEHHTYHIKNYIMNKDLLRRVLVLMNSKHTFLALCALRFMRRIIGLKDEFYNRYITKGNLFEPVINALLDNGTRYNLLNSAVIELFEFIRVEDIKSLTAHIVENFYKALESIEYVQTFKGLKTKYEQEKDRQNQKLNSVPSILRSNRFRRDAKALEEDEEMWFNEDEEEEGKAVVAPVEKPKPEDDFPDNYEKFMETKKAKESEDKENLPKRTSPGGFKFTFSHSASAANGTNSKSVVAQIPPATSNGSSSKTTNLPTSVTATKGSLVGLVDYPDDEEEDEEEESSPRKRPRLGS
IMAP Y2H IMAP1 (number of IST) ([2]; HCV protein E2 as bait): 1
Y2H matrices (HCV proteins; validation of interaction with HCV protein E2): +

B4: SEPT10 (protein, UniProt Q9P0V9 1-454, looked up)
Septin-10: MASSEVARHLLFQSHMATKTTCMSSQGSDDEQIKRENIRSLTMSGHVGFESLPDQLVNRSIQQGFCFNILCVGETGIGKSTLIDTLFNTNFEDYESSHFCPNVKLKAQTYELQESNVQLKLTIVNTVGFGDQINKEESYQPIVDYIDAQFEAYLQEELKIKRSLFTYHDSRIHVCLYFISPTGHSLKTLDLLTMKNLDSKVNIIPVIAKADTVSKTELQKFKIKLMSELVSNGVQIYQFPTDDDTIAKVNAAMNGQLPFAVVGSMDEVKVGNKMVKARQYPWGVVQVENENHCDFVKLREMLICTNMEDLREQTHTRHYELYRRCKLEEMGFTDVGPENKPVSVQETYEAKRHEFHGERQRKEEEMKQMFVQRVKEKEAILKEAERELQAKFEHLKRLHQEERMKLEEKRRLLEEEIIAFSKKKATSEIFHSQSFLATGSNLRKDKDRKNSNFL
IMAP Y2H IMAP1 (number of IST) ([2]; HCV protein NS3 as bait): 1
Y2H matrices (HCV proteins; [3]): +

B5: USP19 (protein, UniProt O94966 1-1318, looked up)
Ubiquitin carboxyl-terminal …: MSGGASATGPRRGPPGLEDTTSKKKQKDRANQESKDGDPRKETGSRYVAQAGLEPLASGDPSASASHAAGITGSRHRTRLFFPSSSGSASTPQEEQTKEGACEDPHDLLATPTPELLLDWRQSAEEVIVKLRVGVGPLQLEDVDAAFTDTDCVVRFAGGQQWGGVFYAEIKSSCAKVQTRKGSLLHLTLPKKVPMLTWPSLLVEADEQLCIPPLNSQTCLLGSEENLAPLAGEKAVPPGNDPVSPAMVRSRNPGKDDCAKEEMAVAADAATLVDEPESMVNLAFVKNDSYEKGPDSVVVHVYVKEICRDTSRVLFREQDFTLIFQTRDGNFLRLHPGCGPHTTFRWQVKLRNLIEPEQCTFCFTASRIDICLRKRQSQRWGGLEAPAARVGGAKVAVPTGPTPLDSTPPGGAPHPLTGQEEARAVEKDKSKARSEDTGLDSVATRTPMEHVTPKPETHLASPKPTCMVPPMPHSPVSGDSVEEEEEEEKKVCLPGFTGLVNLGNTCFMNSVIQSLSNTRELRDFFHDRSFEAEINYNNPLGTGGRLAIGFAVLLRALWKGTHHAFQPSKLKAIVASKASQFTGYAQHDAQEFMAFLLDGLHEDLNRIQNKPYTETVDSDGRPDEVVAEEAWQRHKMRNDSFIVDLFQGQYKSKLVCPVCAKVSITFDPFLYLPVPLPQKQKVLPVFYFAREPHSKPIKFLVSVSKENSTASEVLDSLSQSVHVKPENLRLAEVIKNRFHRVFLPSHSLDTVSPSDTLLCFELLSSELAKERVVVLEVQQRPQVPSVPISKCAACQRKQQSEDEKLKRCTRCYRVGYCNQLCQKTHWPDHKGLCRPENIGYPFLVSVPASRLTYARLAQLLEGYARYSVSVFQPPFQPGRMALESQSPGCTTLLSTGSLEAGDSERDPIQPPELQLVTPMAEGDTGLPRVWAAPDRGPVPSTSGISSEMLASGPIEVGSLPAGERVSRPEAAVPGYQHPSEAMNAHTPQFFIYKIDSSNREQRLEDKGDTPLELGDDCSLALVWRNNERLQEFVLVASKELECAEDPGSAGEAARAGHFTLDQCLNLFTRPEVLAPEEAWYCPQCKQHREASKQLLLWRLPNVLIVQLKRFSFRSFIWRDKINDLVEFPVRNLDLSKFCIGQKEEQLPSYDLYAVINHYGGMIGGHYTACARLPNDRSSQRSDVGWRLFDDSTVTTVDESQVVTRYAYVLFYRRRNSPVERPPRAGHSEHHPDLGPAAEAAASQASRIWQELEAEEEPVPEGSGPLGPWGPQDWVGPLPRGPTTPDEGCLRYFVLGTVAALVALVLNVFYPLVSQSRWR
IMAP Y2H IMAP1 (number of IST) ([2]; HCV protein NS5A as bait): 3
Y2H matrices (HCV proteins; interaction with HCV protein NS5A): +

B6: CEP68 (protein, UniProt Q76N32 1-757, looked up)
Centrosomal protein of 68 kDa: MALGEEKAEAEASEDTKAQSYGRGSCRERELDIPGPMSGEQPPRLEAEGGLISPVWGAEGIPAPTCWIGTDPGGPSRAHQPQASDANREPVAERSEPALSGLPPATMGSGDLLLSGESQVEKTKLSSSEEFPQTLSLPRTTTICSGHDADTEDDPSLADLPQALDLSQQPHSSGLSCLSQWKSVLSPGSAAQPSSCSISASSTGSSLQGHQERAEPRGGSLAKVSSSLEPVVPQEPSSVVGLGPRPQWSPQPVFSGGDASGLGRRRLSFQAEYWACVLPDSLPPSPDRHSPLWNPNKEYEDLLDYTYPLRPGPQLPKHLDSRVPADPVLQDSGVDLDSFSVSPASTLKSPTNVSPNCPPAEATALPFSGPREPSLKQWPSRVPQKQGGMGLASWSQLASTPRAPGSRDARWERREPALRGAKDRLTIGKHLDMGSPQLRTRDRGWPSPRPEREKRTSQSARRPTCTESRWKSEEEVESDDEYLALPARLTQVSSLVSYLGSISTLVTLPTGDIKGQSPLEVSDSDGPASFPSSSSQSQLPPGAALQGSGDPEGQNPCFLRSFVRAHDSAGEGSLGSSQALGVSSGLLKTRPSLPARLDRWPFSDPDVEGQLPRKGGEQGKESLVQCVKTFCCQLEELICWLYNVADVTDHGTAARSNLTSLKSSLQLYRQFKKDIDEHQSLTESVLQKGEILLQCLLENTPVLEDVLGRIAKQSGELESHADRLYDSILASLDMLAGCTLIPDKKPMAAMEHPCEGV
IMAP Y2H IMAP1 (number of IST) ([2]; HCV protein NS5B as bait): 1
Y2H matrices (HCV proteins; interaction with HCV protein NS5B): +

B7: FXYD6 (protein, UniProt Q9H0Q3 19-95, looked up)
FXYD domain-containing ion …: SAAEKEKEMDPFHYDYQTLRIGGLVFAVVLFSVGILLILSRRCKCSFNQKPRAPGDEEAQVENLITANATEPQKAEN
IMAP Y2H IMAP1 (number of IST) ([2]; HCV protein p7 as bait): 1
Y2H matrices (HCV proteins; [4]): +

B8: LMNB1 (protein, UniProt P20700 2-583, looked up)
Lamin-B1: ATATPVPPRMGSRAGGPTTPLSPTRLSRLQEKEELRELNDRLAVYIDKVRSLETENSALQLQVTEREEVRGRELTGLKALYETELADARRALDDTARERAKLQIELGKCKAEHDQLLLNYAKKESDLNGAQIKLREYEAALNSKDAALATALGDKKSLEGDLEDLKDQIAQLEASLAAAKKQLADETLLKVDLENRCQSLTEDLEFRKSMYEEEINETRRKHETRLVEVDSGRQIEYEYKLAQALHEMREQHDAQVRLYKEELEQTYHAKLENARLSSEMNTSTVNSAREELMESRMRIESLSSQLSNLQKESRACLERIQELEDLLAKEKDNSRRMLTDKEREMAEIRDQMQQQLNDYEQLLDVKLALDMEISAYRKLLEGEEERLKLSPSPSSRVTVSRASSSRSVRTTRGKRKRVDVEESEASSSVSISHSASATGNVCIEEIDVDGKFIRLKNTSEQDQPMGGWEMIRKIGDTSVSYKYTSRYVLKAGQTVTIWAANAGVTASPPTDLIWKNQNSWGTGEDVKVILKNSQGEEVAQRSTVFKTTIPEEEEEEEEAAGVVVEEELFHQQGTPRASNRSC
IMAP Y2H IMAP1 (number of IST) ([2]; HCV protein p7 as bait): 1
Y2H matrices (HCV proteins; [4]): +
